Test results: the supplement of paper PMC7877785
± gives the uncertainty stated by the source.

Assay: self-splicing fitness, log relative to wild type (ln ratio); higher = more splicing; Tetrahymena group I intron in knt gene, E. coli kanamycin selection, DiMSum; sequences stand for … in CUCUCU…GGAGGGAAAAGUUAUCAGGCAUGCACCUGGUAGCUAGUCUUUAAACCAAUAGAUUGCAUCGGUUUAAAAGGCAAGACCGUCAAAUUGCGGGAAAGGGGUCAACAGCCGUUCAGUACCAAGUCUCAGGGGAAACUUUGAGAUGGCCUUGCAAAGGGUAUGGUAAUAAGCUGACGGACAUGGUCCUAACCACGCAGCCAAGUCCUAAGUCAACAGAUCUUCUGUUGAUAUGGAUGCAGUUCACAGACUAAAUGUCGGUCGGGGAAGAUGUAUUCUUCUCAUAAGAUAUAGUCGGACCUCUCCUUAAUGGGAGCUAGCGGAUGAAGUGAUGCAACACUGGAGCCGCUGGGAACUAAUUUGUAUGCGAAAGUAUAUUGAUUAGUUUUGGAGUACUCGUGGUCG
Method in brief: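 Library with all eight P1ex-region intron nucleotides randomised, intron inside the knt kanamycin-resistance gene on pET-22b(+), in E. coli BL21(DE3). Cells grew overnight at 37°C or 30°C on LB agar with or without 25 μg/mL kanamycin (plus 100 μg/mL carbenicillin, 50 μM IPTG, 0.2% rhamnose), in six replicate transformations. Pooled colonies were amplicon-sequenced on Illumina HiSeq 2500. DiMSum fitness is the error-weighted combination of wild-type-normalised replicate fold changes, kanamycin versus none.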

| Sequence | self-splicing fitness (ln) (30 °C) | self-splicing fitness (ln) (37 °C) |
| --- | --- | --- |
| AGGCAGCAAUAUUACGUGAC | -3.86 ± 0.21 | -1.84 ± 0.14 |
| AGGCAGCAAUAUUACGUGUC | -3.18 ± 0.15 | -2.58 ± 0.19 |
| AGGCAGCAAUAUUACGUUGU | -2.88 ± 0.15 | -2.52 ± 0.21 |
| AGGCAGCAAUAUUACGUUUG | -3.43 ± 0.18 | -1.66 ± 0.14 |
| AGGGAGCAAUAUUACGACGC | – | -1.54 ± 0.45 |
| AGGGAGCAAUAUUACGAGGA | -3.08 ± 0.33 | – |
| AGGGAGCAAUAUUACGAGUG | -3.39 ± 0.36 | -2.37 ± 0.3 |
| AGGGAGCAAUAUUACGAUAG | -2.56 ± 0.23 | -2.66 ± 0.3 |
| AGGGAGCAAUAUUACGAUCU | -2.71 ± 0.23 | -1.77 ± 0.17 |
| AGGGAGCAAUAUUACGCCCA | – | -0.897 ± 0.34 |
| AGGGAGCAAUAUUACGCUAU | -3.63 ± 0.43 | -1.85 ± 0.49 |
| AGGGAGCAAUAUUACGGAUG | -4 ± 0.33 | -2.6 ± 0.31 |
| AGGGAGCAAUAUUACGGGAU | -3.19 ± 0.46 | -1.48 ± 0.28 |
| AGGGAGCAAUAUUACGGGGC | – | -0.893 ± 0.36 |
| AGGGAGCAAUAUUACGGGUU | -3.84 ± 0.25 | -3.17 ± 0.35 |
| AGGGAGCAAUAUUACGGUAG | -4 ± 0.33 | – |
| AGGGAGCAAUAUUACGGUUU | -3.83 ± 0.24 | -2.39 ± 0.26 |
| AGGGAGCAAUAUUACGUAGA | -3.05 ± 0.19 | -2.22 ± 0.48 |
| AGGGAGCAAUAUUACGUGCA | -4.52 ± 0.34 | -2.5 ± 0.24 |
| AGGGAGCAAUAUUACGUGCC | -2.79 ± 0.46 | – |
| AGGGAGCAAUAUUACGUGGA | -1.45 ± 0.14 | -2.81 ± 0.26 |
| AGGUAGCAAUAUUACGAACA | -0.682 ± 0.019 | -0.342 ± 0.036 |
| AGGUAGCAAUAUUACGAACG | -0.798 ± 0.016 | -0.207 ± 0.035 |
| AGGUAGCAAUAUUACGACGC | -0.0643 ± 0.017 | 0.0178 ± 0.035 |
| AGGUAGCAAUAUUACGACGG | -2.04 ± 0.02 | -1.31 ± 0.037 |

| Sequence | self-splicing fitness (ln) (30 °C) | self-splicing fitness (ln) (37 °C) |
| --- | --- | --- |
| AGGUAGCAAUAUUACGAGGG | -3.972 ± 0.031 | -3.2 ± 0.042 |
| AGGUAGCAAUAUUACGAUCA | -0.205 ± 0.014 | -0.121 ± 0.033 |
| AGGUAGCAAUAUUACGCACU | -1.32 ± 0.017 | -0.862 ± 0.035 |
| AGGUAGCAAUAUUACGCAGG | -3.433 ± 0.022 | -1.88 ± 0.035 |
| AGGUAGCAAUAUUACGCCAU | -1.89 ± 0.021 | -0.939 ± 0.036 |
| AGGUAGCAAUAUUACGGAAG | -3.612 ± 0.031 | -2.5 ± 0.04 |
| AGGUAGCAAUAUUACGGCUA | -1.66 ± 0.022 | -1.14 ± 0.037 |
| AGGUAGCAAUAUUACGGUCU | -0.498 ± 0.013 | -0.107 ± 0.033 |
| AGGUAGCAAUAUUACGUAUA | -2.6 ± 0.023 | -1.45 ± 0.036 |
| AGGUAGCAAUAUUACGUCAA | -2.28 ± 0.023 | -1.6 ± 0.036 |
| AGGUAGCAAUAUUACGUUUC | -3.528 ± 0.026 | -2.18 ± 0.039 |
| AGUAAGCAAUAUUACGAACU | -2.43 ± 0.19 | -0.813 ± 0.15 |
| AGUAAGCAAUAUUACGAAGC | -3.12 ± 0.27 | -3.5 ± 0.37 |
| AGUAAGCAAUAUUACGAAUG | -1.15 ± 0.28 | – |
| AGUAAGCAAUAUUACGAGUU | -2.53 ± 0.097 | -0.877 ± 0.1 |
| AGUAAGCAAUAUUACGCCCC | 0.393 ± 0.41 | -1.15 ± 0.36 |
| AGUAAGCAAUAUUACGCGAA | -2.57 ± 0.12 | -1.42 ± 0.19 |
| AGUAAGCAAUAUUACGCGCG | -1.05 ± 0.21 | -0.403 ± 0.21 |
| AGUAAGCAAUAUUACGCGGA | -3.49 ± 0.32 | -0.326 ± 0.11 |
| AGUAAGCAAUAUUACGCUCC | -3.21 ± 0.28 | -1.18 ± 0.2 |
| AGUAAGCAAUAUUACGGAGU | -2.22 ± 0.18 | -2.37 ± 0.39 |
| AGUAAGCAAUAUUACGGCAA | -0.915 ± 0.11 | -0.179 ± 0.096 |
| AGUAAGCAAUAUUACGGCGG | -2.43 ± 0.16 | -1.66 ± 0.19 |
| AGUAAGCAAUAUUACGGCUG | -0.953 ± 0.11 | -0.941 ± 0.12 |
| AGUAAGCAAUAUUACGGGCG | -0.68 ± 0.08 | 0.152 ± 0.12 |

| Sequence | self-splicing fitness (ln) (30 °C) | self-splicing fitness (ln) (37 °C) |
| --- | --- | --- |
| AGUAAGCAAUAUUACGUAGA | -3.23 ± 0.19 | -1.78 ± 0.16 |
| AGUAAGCAAUAUUACGUAGU | -3.22 ± 0.14 | -2.53 ± 0.16 |
| AGUAAGCAAUAUUACGUCUA | -0.96 ± 0.16 | -0.0188 ± 0.15 |
| AGUAAGCAAUAUUACGUGGC | -2.68 ± 0.16 | -2.54 ± 0.22 |
| AGUAAGCAAUAUUACGUGUU | -3.49 ± 0.13 | -1.99 ± 0.18 |
| AGUAAGCAAUAUUACGUUAU | -3.25 ± 0.23 | -2.18 ± 0.18 |
| AGUCAGCAAUAUUACGACCA | -0.2 ± 0.12 | 0.345 ± 0.14 |
| AGUCAGCAAUAUUACGACGG | -0.725 ± 0.067 | -0.096 ± 0.1 |
| AGUCAGCAAUAUUACGACGU | 0.702 ± 0.092 | -0.164 ± 0.096 |
| AGUCAGCAAUAUUACGAGUG | -2.14 ± 0.079 | -0.966 ± 0.095 |
| AGUCAGCAAUAUUACGAUGA | -0.22 ± 0.057 | -0.0826 ± 0.071 |
| AGUCAGCAAUAUUACGCAGG | -2.85 ± 0.26 | -2.92 ± 0.43 |
| AGUCAGCAAUAUUACGCAUG | -2.04 ± 0.14 | -1.12 ± 0.13 |
| AGUCAGCAAUAUUACGCCAA | -2.75 ± 0.34 | -0.963 ± 0.2 |
| AGUCAGCAAUAUUACGCGCA | -0.326 ± 0.11 | 0.452 ± 0.17 |
| AGUCAGCAAUAUUACGCGCG | 0.157 ± 0.12 | -0.374 ± 0.13 |
| AGUCAGCAAUAUUACGCUCG | -0.828 ± 0.075 | -0.495 ± 0.098 |
| AGUCAGCAAUAUUACGGAGG | -2.93 ± 0.13 | -1.31 ± 0.15 |
| AGUCAGCAAUAUUACGGCAC | -0.122 ± 0.093 | -0.255 ± 0.14 |
| AGUCAGCAAUAUUACGGCGC | -0.611 ± 0.13 | -0.0744 ± 0.18 |
| AGUCAGCAAUAUUACGGCUG | -0.616 ± 0.12 | -1.96 ± 0.22 |
| AGUCAGCAAUAUUACGGGGC | – | -2.31 ± 0.45 |
| AGUCAGCAAUAUUACGUAAA | -1.71 ± 0.12 | -0.231 ± 0.11 |
| AGUCAGCAAUAUUACGUGUU | -0.875 ± 0.061 | -0.392 ± 0.096 |
| AGUCAGCAAUAUUACGUUUC | -3.63 ± 0.15 | -1.34 ± 0.11 |

| Sequence | self-splicing fitness (ln) (30 °C) | self-splicing fitness (ln) (37 °C) |
| --- | --- | --- |
| AGUGAGCAAUAUUACGACAU | -1.07 ± 0.014 | -0.531 ± 0.034 |
| AGUGAGCAAUAUUACGACCG | – | -0.72 ± 0.27 |
| AGUGAGCAAUAUUACGACUU | -1.18 ± 0.17 | -0.93 ± 0.19 |
| AGUGAGCAAUAUUACGAUAA | -4.08 ± 0.33 | -2.16 ± 0.25 |
| AGUGAGCAAUAUUACGAUCG | -0.663 ± 0.23 | -0.975 ± 0.24 |
| AGUGAGCAAUAUUACGCAUU | -2.55 ± 0.21 | -1.4 ± 0.19 |
| AGUGAGCAAUAUUACGCCGC | -1.96 ± 0.25 | -0.183 ± 0.22 |
| AGUGAGCAAUAUUACGCGAU | -3.96 ± 0.42 | -1.8 ± 0.24 |
| AGUGAGCAAUAUUACGCGUA | -1.97 ± 0.27 | -1.48 ± 0.17 |
| AGUGAGCAAUAUUACGCGUU | -3.04 ± 0.19 | -2.18 ± 0.18 |
| AGUGAGCAAUAUUACGCUGG | – | -2.84 ± 0.41 |
| AGUGAGCAAUAUUACGGCAG | -3.28 ± 0.28 | -1.43 ± 0.24 |
| AGUGAGCAAUAUUACGGCCC | -1.16 ± 0.39 | – |
| AGUGAGCAAUAUUACGGGCC | -3.49 ± 0.4 | -2.02 ± 0.34 |
| AGUGAGCAAUAUUACGGGGG | -3.05 ± 0.31 | -2.87 ± 0.3 |
| AGUGAGCAAUAUUACGGGUG | -3.71 ± 0.17 | -2.79 ± 0.21 |
| AGUGAGCAAUAUUACGGUUU | -2.09 ± 0.14 | -2.28 ± 0.33 |
| AGUGAGCAAUAUUACGUACU | -1.71 ± 0.13 | -1.15 ± 0.17 |
| AGUGAGCAAUAUUACGUCAG | -3 ± 0.21 | -2.56 ± 0.23 |
| AGUGAGCAAUAUUACGUGGG | -3.7 ± 0.29 | -2.51 ± 0.23 |
| AGUGAGCAAUAUUACGUUCC | -4 ± 0.34 | -1.47 ± 0.16 |
| AGUUAGCAAUAUUACGAAAG | -4.09 ± 0.21 | -2.82 ± 0.24 |
| AGUUAGCAAUAUUACGAACU | -1.59 ± 0.23 | -1.89 ± 0.28 |
